According to publication PMC4243950, “Characterization of the accessory protein ClpT1 from Arabidopsis thaliana: oligomerization status and interaction with Hsp100 chaperones” (BMC Plant Biology, 2014):

Columns and labels:
[1] = target: ClpD (recombinant chloroplastic Hsp100 chaperone from Arabidopsis) (Arabidopsis thaliana) (UniProt P42762)
[2] = target: ClpD (recombinant chloroplastic Hsp100 chaperone from Arabidopsis) (Arabidopsis thaliana) (UniProt P42762); remark: listed apart in the source
[3] = target: ClpT1 (recombinant mature ClpT1 from Arabidopsis thaliana, His-tag removed) (Arabidopsis thaliana) (UniProt Q93WL3); test: SEC; 6-fold concentrated sample and 10-fold diluted sample of ClpT1 injected; data not shown
[4] = target: ClpT1 (recombinant mature ClpT1 from Arabidopsis thaliana, His-tag removed) (Arabidopsis thaliana) (UniProt Q93WL3); test: SEC; the small dimer peak of the first run collected and reinjected into the column (second SEC step)
[5] = target: ClpT1 (recombinant mature ClpT1 from Arabidopsis thaliana, His-tag removed) (Arabidopsis thaliana) (UniProt Q93WL3); test: SEC; purified ClpT1 on Superdex 75 10/300 GL, 0.5 mL/min, 50 mM Tris-HCl pH 8.0, 100 mM NaCl; monomer and dimer peaks integrated
[6] = target: ClpT1 (recombinant mature ClpT1 from Arabidopsis thaliana, His-tag removed) (Arabidopsis thaliana) (UniProt Q93WL3); test: cross-linking; EGS at 10, 20, 30 and 50-fold molar excess, 25 μM protein, 50 mM Hepes pH 7.5, 100 mM NaCl, 30 min at room temperature; SDS-PAGE with Coomassie staining
[7] = target: ClpC2 (recombinant chloroplastic Hsp100 chaperone from Arabidopsis) (Arabidopsis thaliana) (UniProt Q9SXJ7); test: ultrafiltration (retention by a 50 kDa cut-off membrane); ClpC2 or ClpD with ClpT1 or GFP, 1.3 μM each, 50 mM Tris-HCl pH 8.0, 150 mM NaCl, 10 mM MgCl2, 5 mM ATP, 10 min at 25°C; Vivaspin 500, 30 s at 11,500 x g; permeate and retentate on SDS-PAGE, densitometry
[8] = target: ClpD (recombinant chloroplastic Hsp100 chaperone from Arabidopsis) (Arabidopsis thaliana) (UniProt P42762); test: as above
[9] = target: glutathione S-transferase; test: cross-linking; EGS at 10, 20, 30 and 50-fold molar excess, 25 μM protein, 50 mM Hepes pH 7.5, 100 mM NaCl, 30 min at room temperature; SDS-PAGE with Coomassie staining
[10] = target: T1, ClpC2 (Arabidopsis thaliana, UniProt Q9SXJ7); test: ATPase, inorganic phosphate release, Malachite green; format: biochemical; conditions: ClpC2 0.5 uM; basal activity without ClpT1
T1 construct: Hsp100 chaperones can assemble into hexamers
T1 sequence (Q9SXJ7 46-952): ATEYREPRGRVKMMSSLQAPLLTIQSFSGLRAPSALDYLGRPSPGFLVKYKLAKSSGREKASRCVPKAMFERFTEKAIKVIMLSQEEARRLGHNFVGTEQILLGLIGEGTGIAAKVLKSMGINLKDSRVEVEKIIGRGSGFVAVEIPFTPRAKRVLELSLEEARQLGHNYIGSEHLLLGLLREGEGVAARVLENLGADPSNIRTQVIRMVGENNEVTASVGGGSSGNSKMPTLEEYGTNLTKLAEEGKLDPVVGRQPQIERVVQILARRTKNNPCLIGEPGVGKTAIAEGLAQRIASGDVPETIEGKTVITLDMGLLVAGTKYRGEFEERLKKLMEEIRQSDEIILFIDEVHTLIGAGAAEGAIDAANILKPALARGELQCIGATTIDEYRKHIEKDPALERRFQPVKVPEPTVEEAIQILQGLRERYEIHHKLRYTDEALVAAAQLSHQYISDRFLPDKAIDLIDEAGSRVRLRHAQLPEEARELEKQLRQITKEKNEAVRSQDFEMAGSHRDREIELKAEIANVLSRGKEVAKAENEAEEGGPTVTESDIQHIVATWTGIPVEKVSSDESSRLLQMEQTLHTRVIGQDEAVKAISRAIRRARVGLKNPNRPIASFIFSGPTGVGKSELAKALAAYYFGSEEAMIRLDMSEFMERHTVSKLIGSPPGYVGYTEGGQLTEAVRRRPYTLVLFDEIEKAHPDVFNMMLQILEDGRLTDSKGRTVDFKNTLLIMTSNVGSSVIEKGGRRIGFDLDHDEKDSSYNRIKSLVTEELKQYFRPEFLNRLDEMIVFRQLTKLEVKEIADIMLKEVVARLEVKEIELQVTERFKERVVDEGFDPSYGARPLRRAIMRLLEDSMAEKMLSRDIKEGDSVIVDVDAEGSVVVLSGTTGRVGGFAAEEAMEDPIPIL

[11] = substrate: Nc1ncnc2c1ncn2[C@@H]1O[C@H](COP(=O)(O)OP(=O)(O)OP(=O)(O)O)[C@@H](O)[C@H]1O; test: ATPase, inorganic phosphate release, Malachite green; Michaelis-Menten fit; format: biochemical, Arabidopsis thaliana; conditions: without ClpT1; ClpD 0.5 uM; ATP varied 0-12 mM, complete saturation not reached (extrapolated)

“ClpT1 (recombinant mature ClpT1 from Arabidopsis thaliana, His-tag removed) (from UniProt Q93WL3 65-238) (natural protein)” was tested, and the ATPase activity of ClpD (Malachite green), ClpT1:ClpD molar ratios from approximately 0.15:1 to 6:1; activation over the basal activity, back to the basal value at 6:1 [1] was greater than 50%, the Vmax of the ClpD ATPase in the presence of ClpT1 at a 1:1 molar ratio (0.19 nmol/(min × μg protein) without ClpT1) (nmol/(min × μg protein)) [2] was 0.43 and the percent dimer compared to the monomer species [3] was less than 5%. For the same molecule, the percent of the total protein in the dimer peak after reinjection of the dimer peak [4] was greater than 92%, the percent of the total protein in the dimer peak [5] was less than 5% and the stoichiometry N [5] was 2. The percent of the total protein cross-linked as dimer at the highest EGS concentration [6] was 60%, the stoichiometry N [6] was 2 and the percent of ClpT1 kept in the retentate [7] was greater than 75%. For the same molecule, the percent of ClpT1 kept in the retentate [8] was greater than 75%.

glutathione S-transferase (enzyme) gave a stoichiometry N [9] of 2.

For `Nc1ncnc2c1ncn2[C@@H]1O[C@H](COP(=O)(O)OP(=O)(O)OP(=O)(O)O)[C@@H](O)[C@H]1O` [ATP], the specific activity [10] was “Both chaperones have a basal ATPase activity”.

B1: ClpD (Arabidopsis thaliana) (protein)
chain: AIIFSQKEAKSLGKDMVYTQHLLLGLIAEDRDPQGFLGSGITIDKAREAVWSIWDEANSDSKQEEASSTSYSKSTDMPFSISTKRVFEAAVEYSRTMDCQYIAPEHIAVGLFTVDDGSAGRVLKRLGANMNLLTAAALTRLKGEIAKDGREPSSSSKGSFESPPSGRIAGSGPGGKKAKNVLEQFCVDLTARASEGLIDPVIGREKEVQRVIQILCRRTKNNPILLGEAGVGKTAIAEGLAISIAEASAPGFLLTKRIMSLDIGLLMAGAKERGELEARVTALISEVKKSGKVILFIDEVHTLIGSGTVGRGNKGSGLDIANLLKPSLGRGELQCIASTTLDEFRSQFEKDKALARRFQPVLINEPSEEDAVKILLGLREKYEAHHNCKYTMEAIDAAVYLSSRYIADRFLPDKAIDLIDEAGSRARIEAFRKKKEDAICILSKPPNDYWQEIKTVQAMHEVVLSSRQKQDDGDAISDESGELVEESSLPPAAGDDEPILVGPDDIAAVASVWSGIPVQQITADERMLLMSLEDQLRGRVVGQDEAVAAISRAVKRSRVGLKDPDRPIAAMLFCGPTGVGKTELTKALAANYFGSEESMLRLDMSEYMERHTVSKLIGSPPGYVGFEEGGMLTEAIRRRPFTVVLFDEIEKAHPDIFNILLQLFEDGHLTDSQGRRVSFKNALIIMTSNVGSLAIAKGRHGSIGFILDDDEEAASYTGMKALVVEELKNYFRPELLNRIDEIVIFRQLEKAQMMEILNLMLQDLKSRLVALGVGLEVSEPVKELICKQGYDPAYGARPLRRTVTEIVEDPLSEAFLAGSFKPGDTAFVVLDDTGNPSVRTKPDSSTIRVTDKTSIA
notes: Hsp100 chaperones can assemble into hexamers
B1 showed a Km [11] of 19.1 mM.
